Measured values: patent US20200199207A1 (MABYLON, published 2020)

T1: Peptide 1 (peanut)
T1 construct: 20-mer of Ara h 2, overlap of 12 with its neighbours; also called linear Ara h 2 peptide 1
T1 peptide: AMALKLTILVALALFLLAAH

T2: Peptide 2 (peanut)
T2 construct: also called linear Ara h 2 peptide 2
T2 peptide: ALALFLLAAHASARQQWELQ

T3: Peptide 3 (peanut)
T3 construct: also called linear Ara h 2 peptide 3
T3 peptide: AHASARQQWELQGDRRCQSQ

T4: Peptide 4 (peanut)
T4 construct: also called linear Ara h 2 peptide 4
T4 peptide: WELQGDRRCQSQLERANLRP

T5: Peptide 5 (peanut)
T5 construct: also called linear Ara h 2 peptide 5
T5 peptide: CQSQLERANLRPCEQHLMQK

T6: Peptide 6 (peanut)
T6 construct: also called linear Ara h 2 peptide 6
T6 peptide: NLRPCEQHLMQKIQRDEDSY

T7: Peptide 7 (peanut)
T7 construct: also called linear Ara h 2 peptide 7
T7 peptide: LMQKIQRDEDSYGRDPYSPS

T8: Peptide 8 (peanut)
T8 construct: also called linear Ara h 2 peptide 8
T8 peptide: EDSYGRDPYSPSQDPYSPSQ

T9: Peptide 9 (peanut)
T9 construct: also called linear Ara h 2 peptide 9
T9 peptide: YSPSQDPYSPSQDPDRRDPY

T10: Peptide 10 (peanut)
T10 construct: also called linear Ara h 2 peptide 10
T10 peptide: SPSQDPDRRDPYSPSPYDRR

T11: Peptide 11 (peanut)
T11 construct: also called linear Ara h 2 peptide 11
T11 peptide: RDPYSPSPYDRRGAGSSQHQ

T12: Peptide 12 (peanut)
T12 construct: also called linear Ara h 2 peptide 12
T12 peptide: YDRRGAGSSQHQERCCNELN

T13: Peptide 13 (peanut)
T13 construct: also called linear Ara h 2 peptide 13
T13 peptide: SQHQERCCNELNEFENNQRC

T14: Peptide 14 (peanut)
T14 construct: also called linear Ara h 2 peptide 14
T14 peptide: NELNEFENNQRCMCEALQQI

T15: Peptide 15 (peanut)
T15 construct: also called linear Ara h 2 peptide 15
T15 peptide: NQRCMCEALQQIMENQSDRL

T16: Peptide 16 (peanut)
T16 construct: also called linear Ara h 2 peptide 16
T16 peptide: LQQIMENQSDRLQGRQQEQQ

T17: Peptide 17 (peanut)
T17 construct: also called linear Ara h 2 peptide 17
T17 peptide: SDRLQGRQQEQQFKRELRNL

T18: Peptide 18 (peanut)
T18 construct: also called linear Ara h 2 peptide 18
T18 peptide: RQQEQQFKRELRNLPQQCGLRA

T19: Peptide 19 (peanut)
T19 construct: also called linear Ara h 2 peptide 19
T19 peptide: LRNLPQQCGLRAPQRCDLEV

T20: Peptide 20 (peanut)
T20 construct: also called linear Ara h 2 peptide 20
T20 peptide: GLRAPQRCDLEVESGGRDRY


Columns and labels:
Experiment in all cases: competition ELISA, peptide in solution vs coated Ara h 2
Peptide 1 = target: T1, Peptide 1
Experimental: (§1) A competition ELISA was used to evaluate binding of exemplary anti-peanut antibodies of the present invention to linear Ara h 2 epitopes. Serial dilutions of linear Ara h 2 epitopes (100 μM down to 0.19 nM; peptides with a length of 20 amino acids and an overlap of 12 amino acids between the peptides) were pre-incubated with exemplary anti-peanut antibodies ([…]) for 1 hour at room temperature. The pre-incubated antibody-epitope mixtures were subsequently incubated on plates coated with full length Ara h 2 (coating overnight at 4° C. with 0.05 μg/ml Ara h 2 in PBS, followed by wash out and blocking with 2% BSA in PBS). The plates were subsequently washed and binding of MAbs to Ara h 2 was detected HRP-conjugated goat anti human Fc-gamma-specific antibody (Jackson ImmunoResearch, West Grove, Pa., USA) followed by measurement of the HRP activity using a tetramethylbenzidine substrate solution (TMB, Sigma-Aldrich Chemie GmbH, Buchs, Switzerland). As may be seen from Table 5, exemplary anti-peanut allergen antibody 32B10 binds to different linear Ara h 2 epitopes than 12G10 and 37D5.

Peptide 2 = target: T2, Peptide 2
Experimental: as §1

Peptide 3 = target: T3, Peptide 3
Experimental: as §1

Peptide 4 = target: T4, Peptide 4
Experimental: as §1

Peptide 5 = target: T5, Peptide 5
Experimental: as §1

Peptide 6 = target: T6, Peptide 6
Experimental: as §1

Peptide 7 = target: T7, Peptide 7
Experimental: as §1

Peptide 8 = target: T8, Peptide 8
Experimental: as §1

Peptide 9 = target: T9, Peptide 9
Experimental: as §1

Peptide 10 = target: T10, Peptide 10
Experimental: as §1

Peptide 11 = target: T11, Peptide 11
Experimental: as §1

Peptide 12 = target: T12, Peptide 12
Experimental: as §1

Peptide 13 = target: T13, Peptide 13
Experimental: as §1

Peptide 14 = target: T14, Peptide 14
Experimental: as §1

Peptide 15 = target: T15, Peptide 15
Experimental: as §1

Peptide 16 = target: T16, Peptide 16
Experimental: as §1

Peptide 17 = target: T17, Peptide 17
Experimental: as §1

Peptide 18 = target: T18, Peptide 18
Experimental: as §1

Peptide 19 = target: T19, Peptide 19
Experimental: as §1

Peptide 20 = target: T20, Peptide 20
Experimental: as §1

binding result (Peptide 1) | binding result (Peptide 2) | binding result (Peptide 3) | binding result (Peptide 4) | binding result (Peptide 5) | binding result (Peptide 6) | binding result (Peptide 7) | binding result (Peptide 8) | binding result (Peptide 9) | binding result (Peptide 10) | binding result (Peptide 11) | binding result (Peptide 12) | binding result (Peptide 13) | binding result (Peptide 14) | binding result (Peptide 15) | binding result (Peptide 16) | binding result (Peptide 17) | binding result (Peptide 18) | binding result (Peptide 19) | binding result (Peptide 20) | Binder
no binding (tested: 100 µM) | no binding (tested: 100 µM) | no binding (tested: 100 µM) | binds | no binding (tested: 100 µM) | no binding (tested: 100 µM) | no binding (tested: 100 µM) | no binding (tested: 100 µM) | no binding (tested: 100 µM) | no binding (tested: 100 µM) | no binding (tested: 100 µM) | no binding (tested: 100 µM) | no binding (tested: 100 µM) | no binding (tested: 100 µM) | no binding (tested: 100 µM) | no binding (tested: 100 µM) | no binding (tested: 100 µM) | no binding (tested: 100 µM) | no binding (tested: 100 µM) | no binding (tested: 100 µM) | h32B10 (antibody, V domains shown, Recombinant human IgG; also called hMAb 32B10) VH: QVQLVQSGAEVKKPGASVKVSCRASGYIFRNFDINWVRQATGQGLEWMGWMSPKSGDTGYAQKFQGRVTMTRDTSINTAYMELSSLTSEDSAVYYCARGVDGTNWGQGTRVTVSS VL: DIVMTQSPDSLGVSLGERATISCKSSQSILDNSNNKNFIAWFQQKPGQPPKLLIYWASARESGVPDRFSGSGSGTEFTLTINSLQAEDVAVYYCYQYYSTPHTFGQGTKLDLR
no binding (tested: 100 µM) | no binding (tested: 100 µM) | no binding (tested: 100 µM) | no binding (tested: 100 µM) | no binding (tested: 100 µM) | no binding (tested: 100 µM) | no binding (tested: 100 µM) | binds | binds | binds | binds | no binding (tested: 100 µM) | no binding (tested: 100 µM) | no binding (tested: 100 µM) | no binding (tested: 100 µM) | no binding (tested: 100 µM) | no binding (tested: 100 µM) | no binding (tested: 100 µM) | no binding (tested: 100 µM) | no binding (tested: 100 µM) | h12G10 (antibody, human IgG1, V domains shown, Recombinant human IgG; also called hMAb 12G10) VH: EVQLLESGGRLLRPGGSLSLSCVASGFYFGDFGMSWVRQVPGKGLEWVSGIDWSGRSTGYVDSMKGRLTISRDNDKSSLYLQMNDLRGEDTAVYYCARVGRLCSGDSCDSMGAFDLWGQGTMVTVSS VL: DIQLTQSPSTLSASIGDSVTITCRASQNIDNWLAWYQQKPGKAPRLLIYKASSLGSGVSSKFRGSGFGTEFTLTITSLQPDDFATYYCQKSNGYSRTFGQGTKVDIK
no binding (tested: 100 µM) | no binding (tested: 100 µM) | no binding (tested: 100 µM) | no binding (tested: 100 µM) | no binding (tested: 100 µM) | no binding (tested: 100 µM) | no binding (tested: 100 µM) | binds | binds | binds | binds | no binding (tested: 100 µM) | no binding (tested: 100 µM) | no binding (tested: 100 µM) | no binding (tested: 100 µM) | no binding (tested: 100 µM) | no binding (tested: 100 µM) | no binding (tested: 100 µM) | no binding (tested: 100 µM) | no binding (tested: 100 µM) | h37D5 (antibody, V domains shown, Recombinant human IgG; also called hMAb 37D5) VH: EEQLVESGGRLLRPGESLSLSCAAVGFNFGDFGMAWVRQPPGKGLEWVAGINWSGHSTGFVDSMKGRLTISRDSAKSSLFLQMNSLRGEDTAVYYCARVGRLCSGDICDSMGAFDLWGQGTMVTVSS VL: DIQMTQSPSTLSASIGDRVTITCRASQTIDNWLAWYQQRPGKAPKLLIYQASSLQSGVSSRFRGSGSGTEFTLTITSLQPDDFATYYCQKSNGYSRTFGQGTKVEIK
no binding (tested: 100 µM) | no binding (tested: 100 µM) | no binding (tested: 100 µM) | no binding (tested: 100 µM) | no binding (tested: 100 µM) | no binding (tested: 100 µM) | no binding (tested: 100 µM) | no binding (tested: 100 µM) | no binding (tested: 100 µM) | no binding (tested: 100 µM) | no binding (tested: 100 µM) | no binding (tested: 100 µM) | no binding (tested: 100 µM) | no binding (tested: 100 µM) | no binding (tested: 100 µM) | no binding (tested: 100 µM) | no binding (tested: 100 µM) | no binding (tested: 100 µM) | no binding (tested: 100 µM) | no binding (tested: 100 µM) | h4B2 (antibody, V domains shown, Recombinant human IgG; also called hMAb 4B2) VH: QVQLQEAGPRLVKPSQTLSVTCTVSGASITIGGYYWSWIRQHPGKGLEWMGYIYSNGRTYYNPSLKSRIAMSIDTSKNQFSLKLTSVTAADTAIYFCAREAWETPLWGQGTLITVSS VL: DIQMTQSPSSLSASVGDRVTITCQANQDIVNSLNWFQHKPGTAPKVLIYDASKLETGVPSRFSGSGSGTHFTFTISGLQPEDFATYFCQQYENLPHTFGQGTKLEIR
